According to PMC9798557 (Journal of Hematology & Oncology, 2022):

Target: T1, human CD38 (Homo sapiens, UniProt P28907)
T1 construct: CD38, human; Used for both the SPR and the cryo-EM complex; probably a soluble extracellular form
Assay: SPR; Biacore 8 K
Details: both partners purified

Kd: 3.84 nM
B1: daratumumab (antibody, V domains shown)
VH: EVQLLESGGGLVQPGGSLRLSCAVSGFTFNSFAMSWVRQAPGKGLEWVSAISGSGGGTYYADSVKGRFTISRDNSKNTLYLQMNSLRAEDTAVYFCAKDKILWFGEPVFDYWGQGTLVTVSS
VL: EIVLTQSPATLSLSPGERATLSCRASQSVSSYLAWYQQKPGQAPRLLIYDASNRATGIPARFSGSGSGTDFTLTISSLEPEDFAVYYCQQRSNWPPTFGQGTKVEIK
notes: heavy chain of daratumumab; light chain of daratumumab; Marketed anti-CD38 mAb used as a comparator
